Results on seven molecules are retold here after US20150203577A1 (Chugai, published 2015).

Assay [1] has as its target T1, mouse FcγRIII extracellular domain, C-terminal His tag (mouse, UniProt P08508 31-215).
T1 construct: also called mFcγRIII; mFcgRIII
T1 chain: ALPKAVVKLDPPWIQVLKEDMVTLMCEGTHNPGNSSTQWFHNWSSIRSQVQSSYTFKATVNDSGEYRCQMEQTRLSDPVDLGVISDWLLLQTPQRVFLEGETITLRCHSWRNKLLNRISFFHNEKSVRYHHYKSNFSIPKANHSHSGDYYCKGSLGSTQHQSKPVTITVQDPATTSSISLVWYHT
Kind of assay: SPR (Biacore T200), antibody captured on Protein L, mFcγR analyte. Here is the method: (§1) Each altered antibody was analyzed for its interaction with each Fcγ receptor prepared above using Biacore T100 (GE Healthcare Japan Corp.), Biacore T200 (GE Healthcare Japan Corp.), Biacore A100, or Biacore 4000. The running buffer used was HBS-EP+ (GE Healthcare Japan Corp.). The assay temperature was set to 25° C. The sensor chips used were chips prepared by immobilizing Protein L (ACTIGEN or BioVision) onto Series S Sensor Chip CM5 (GE Healthcare Japan Corp.) or Series S Sensor Chip CM4 (GE Healthcare Japan Corp.) by the amine coupling method.
(§2) In order to calculate the KD value of each altered antibody for FcγR, kinetic analysis was conducted according to the following method: first, the antibody of interest was captured onto any of these chips and allowed to interact with mFcγR diluted with a running buffer. For the obtained sensorgram, the assay results were globally fit into the 1:1 Langmuir binding model using Biacore Evaluation Software to calculate an association rate constant ka (L/mol/s) and a dissociation rate constant kd (1/s). From these values, the dissociation constant KD (mol/L) was calculated.
For orientation: Surface plasmon resonance follows binding to a sensor surface in real time, without labels.

For assay [2], the target named is T2, mouse FcγRII extracellular domain, C-terminal His tag (mouse, UniProt P08101 30-210).
T2 construct: also called mFcγRII; mFcgRII
T2 sequence: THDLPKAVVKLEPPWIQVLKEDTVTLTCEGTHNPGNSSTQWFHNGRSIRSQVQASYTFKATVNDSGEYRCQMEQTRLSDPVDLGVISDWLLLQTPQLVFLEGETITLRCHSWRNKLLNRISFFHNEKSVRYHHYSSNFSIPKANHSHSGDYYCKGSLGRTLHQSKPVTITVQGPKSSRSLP
The description is as above. Here is the method: as §1, §2

B1: H237-MB750/MRAL-k0 (antibody, mouse IgG1, kappa)
heavy: QVQLQESGPGLVKPSETLSLTCAVSGHSISHDHAWSWVRQPPGEGLEWIGFISYSGITNYNPSLQGRVTISRDNSKNTLYLQMNSLRAEDTAVYYCARSLARTTAMDYWGEGTLVTVSSAKTTPPSVYPLAPGSAAQTNSMVTLGCLVKGYFPEPVTVTWNSGSLSSGVHTFPAVLQSDLYTLSSSVTVPSSTWPSETVTCNVAHPASSTKVDKKIVPRDCGCKPCICEPNEVELVFIFPPKPKDVLTITLTPKVTCVVVDISKDDPEVQFSWFVDDVEVHTAQTQPREEQFNSTFRSVSELPIMHQDWLNGKEFKCRVNSDAFPAPIEKTISKTKGRPKAPQVYTIPPPKEQMAKDKVSLTCMITDFFPEDITVEWQWNGQPAENYKNTQPIMDTDGSYFVYSKLNVQKSNWEAGNTFTCSVLHEGLHNHHTEKSLSHSPGK
light: not shown
notes: copies: 2 + 2
One may read the Kd as a measure of binding affinity in units of concentration. Read a high Kd as lower affinity. For the molecule B1, in assay [1], the affinity, expressed as Kd, was 705 nM and the “relative mFcγRIII-binding activity (mIgG1 = 1)” value is 0.4 fold vs H237-mIgG1/MRAL-k0. In assay [2], binding was put at a Kd of 7.13 nM and the “relative mFcγRII-binding activity (mIgG1 = 1)” value was 29.4 fold vs H237-mIgG1/MRAL-k0.

B2: H237-MB527/MRAL-k0 (antibody, mouse IgG1, kappa)
heavy: QVQLQESGPGLVKPSETLSLTCAVSGHSISHDHAWSWVRQPPGEGLEWIGFISYSGITNYNPSLQGRVTISRDNSKNTLYLQMNSLRAEDTAVYYCARSLARTTAMDYWGEGTLVTVSSAKTTPPSVYPLAPGSAAQTNSMVTLGCLVKGYFPEPVTVTWNSGSLSSGVHTFPAVLQSDLYTLSSSVTVPSSTWPSETVTCNVAHPASSTKVDKKIVPRDCGCKPCICQPNEVEEVFIFPPKPKDVLTITLTPKVTCVVVDISKDDPEVQFSWFVDDVEVHTAQTQPREEQFNLTFRSVSELPIMHQDWLNGKEFKCRVDSAAFPAPIEKTISKTKGRPKAPQVYTIPPPKEQMAKDKVSLTCMITDFFPEDITVEWQWNGQPAENYKNTQPIMDTDGSYFVYSKLNVQKSNWEAGNTFTCSVLHEGLHNHHTEKSLSHSPGK
light: not shown
notes: copies: 2 + 2
Consider B2, for which, in assay [1], the Kd amounted to 51 nM and the “relative mFcγRIII-binding activity (mIgG1 = 1)” value is 5.5 fold vs H237-mIgG1/MRAL-k0. In assay [2], the Kd came out at 0.768 nM and the “relative mFcγRII-binding activity (mIgG1 = 1)” value was 273 fold vs H237-mIgG1/MRAL-k0.

B3: H237-MB529/MRAL-k0 (antibody, mouse IgG1, kappa)
heavy: QVQLQESGPGLVKPSETLSLTCAVSGHSISHDHAWSWVRQPPGEGLEWIGFISYSGITNYNPSLQGRVTISRDNSKNTLYLQMNSLRAEDTAVYYCARSLARTTAMDYWGEGTLVTVSSAKTTPPSVYPLAPGSAAQTNSMVTLGCLVKGYFPEPVTVTWNSGSLSSGVHTFPAVLQSDLYTLSSSVTVPSSTWPSETVTCNVAHPASSTKVDKKIVPRDCGCKPCICQPNEVEEVFIFPPKPKDVLTITLTPKVTCVVVDISKDDPEVQFSWFVDDVEVHTAQTQPREEQFNLTFRSVSELPIMHQDWLNGKEFKCRVNSAAFPAPIERTISKTKGRPKAPQVYTIPPPKEQMAKDKVSLTCMITDFFPEDITVEWQWNGQPAENYKNTQPIMDTDGSYFVYSKLNVQKSNWEAGNTFTCSVLHEGLHNHHTEKSLSHSPGK
light: not shown
notes: copies: 2 + 2
For the molecule B3, in assay [1], the Kd was found to be 47.6 nM and the “relative mFcγRIII-binding activity (mIgG1 = 1)” value is 5.9 fold vs H237-mIgG1/MRAL-k0. For the same molecule, in assay [2], the Kd turned out to be 0.745 nM and the “relative mFcγRII-binding activity (mIgG1 = 1)” value is 282 fold vs H237-mIgG1/MRAL-k0.

B4: H237-MB530/MRAL-k0 (antibody, mouse IgG1, kappa)
heavy: QVQLQESGPGLVKPSETLSLTCAVSGHSISHDHAWSWVRQPPGEGLEWIGFISYSGITNYNPSLQGRVTISRDNSKNTLYLQMNSLRAEDTAVYYCARSLARTTAMDYWGEGTLVTVSSAKTTPPSVYPLAPGSAAQTNSMVTLGCLVKGYFPEPVTVTWNSGSLSSGVHTFPAVLQSDLYTLSSSVTVPSSTWPSETVTCNVAHPASSTKVDKKIVPRDCGCKPCICQPNEVEEVFIFPPKPKDVLTITLTPKVTCVVVDISKDDPEVQFSWFVDDVEVHTAQTQPREEQFNSTFRSVSELPIMHQDWLNGKEFKCRVDSDAFPAPIEKTISKTKGRPKAPQVYTIPPPKEQMAKDKVSLTCMITDFFPEDITVEWQWNGQPAENYKNTQPIMDTDGSYFVYSKLNVQKSNWEAGNTFTCSVLHEGLHNHHTEKSLSHSPGK
light: not shown
notes: copies: 2 + 2
B4: in assay [1], binding was put at a Kd of 35.1 nM and the “relative mFcγRIII-binding activity (mIgG1 = 1)” value was 8 fold vs H237-mIgG1/MRAL-k0. Further, in assay [2], binding was put at a Kd of 0.337 nM and the “relative mFcγRII-binding activity (mIgG1 = 1)” value was 623 fold vs H237-mIgG1/MRAL-k0.

B5: H237-MB531/MRAL-k0 (antibody, mouse IgG1, kappa)
heavy: QVQLQESGPGLVKPSETLSLTCAVSGHSISHDHAWSWVRQPPGEGLEWIGFISYSGITNYNPSLQGRVTISRDNSKNTLYLQMNSLRAEDTAVYYCARSLARTTAMDYWGEGTLVTVSSAKTTPPSVYPLAPGSAAQTNSMVTLGCLVKGYFPEPVTVTWNSGSLSSGVHTFPAVLQSDLYTLSSSVTVPSSTWPSETVTCNVAHPASSTKVDKKIVPRDCGCKPCICQPNEVEEVFIFPPKPKDVLTITLTPKVTCVVVDISKDDPEVQFSWFVDDVEVHTAQTQPREEQFNSTFRSVSELPIMHQDWLNGKEFKCRVDSAAFPAPIERTISKTKGRPKAPQVYTIPPPKEQMAKDKVSLTCMITDFFPEDITVEWQWNGQPAENYKNTQPIMDTDGSYFVYSKLNVQKSNWEAGNTFTCSVLHEGLHNHHTEKSLSHSPGK
light: not shown
notes: copies: 2 + 2
For B5, in assay [1], the Kd is 85 nM and the “relative mFcγRIII-binding activity (mIgG1 = 1)” value was 3.3 fold vs H237-mIgG1/MRAL-k0. Further, in assay [2], the Kd was 0.918 nM and the “relative mFcγRII-binding activity (mIgG1 = 1)” value is 229 fold vs H237-mIgG1/MRAL-k0.

B6: H237-MB515/MRAL-k0 (antibody, mouse IgG1, kappa)
heavy: QVQLQESGPGLVKPSETLSLTCAVSGHSISHDHAWSWVRQPPGEGLEWIGFISYSGITNYNPSLQGRVTISRDNSKNTLYLQMNSLRAEDTAVYYCARSLARTTAMDYWGEGTLVTVSSAKTTPPSVYPLAPGSAAQTNSMVTLGCLVKGYFPEPVTVTWNSGSLSSGVHTFPAVLQSDLYTLSSSVTVPSSTWPSETVTCNVAHPASSTKVDKKIVPRDCGCKPCICEPNEVEMVFIFPPKPKDVLTITLTPKVTCVVVDISKDDPEVQFSWFVDDVEVHTAQTQPREEQFNSTFRSVSELPIMHQDWLNGKEFKCRVNSAAFPAPIEKTISKTKGRPKAPQVYTIPPPKEQMAKDKVSLTCMITDFFPEDITVEWQWNGQPAENYKNTQPIMDTDGSYFVYSKLNVQKSNWEAGNTFTCSVLHEGLHNHHTEKSLSHSPGK
light: not shown
notes: copies: 2 + 2
As to B6, in assay [1], binding was characterised by a dissociation constant (Kd) of 214 nM and the “relative mFcγRIII-binding activity (mIgG1 = 1)” value was 1.3 fold vs H237-mIgG1/MRAL-k0. Further, in assay [2], the Kd was 1.53 nM and the “relative mFcγRII-binding activity (mIgG1 = 1)” value is 137 fold vs H237-mIgG1/MRAL-k0.

B7: H237-MB476/MRAL-k0 (antibody, mouse IgG1, kappa)
heavy: QVQLQESGPGLVKPSETLSLTCAVSGHSISHDHAWSWVRQPPGEGLEWIGFISYSGITNYNPSLQGRVTISRDNSKNTLYLQMNSLRAEDTAVYYCARSLARTTAMDYWGEGTLVTVSSAKTTPPSVYPLAPGSAAQTNSMVTLGCLVKGYFPEPVTVTWNSGSLSSGVHTFPAVLQSDLYTLSSSVTVPSSTWPSETVTCNVAHPASSTKVDKKIVPRDCGCKPCICQPNEVEEVFIFPPKPKDVLTITLTPKVTCVVVDISKDDPEVQFSWFVDDVEVHTAQTQPREEQFNSTFRSVSELPIMHQDWLNGKEFKCRVNSAAFPAPIEKTISKTKGRPKAPQVYTIPPPKEQMAKDKVSLTCMITDFFPEDITVEWQWNGQPAENYKNTQPIMDTDGSYFVYSKLNVQKSNWEAGNTFTCSVLHEGLHNHHTEKSLSHSPGK
light: not shown
notes: copies: 2 + 2
For B7, in assay [1], the Kd worked out at 107 nM and the “relative mFcγRIII-binding activity (mIgG1 = 1)” value was 2.6 fold vs H237-mIgG1/MRAL-k0. In assay [2], the Kd is 0.804 nM and the “relative mFcγRII-binding activity (mIgG1 = 1)” value was 261 fold vs H237-mIgG1/MRAL-k0.
